Data set [1] relates to PsdR-P (phosphorylated with ammonium phosphoramidate) (Lacticaseibacillus paracasei BL23). Put plainly: BLI. Particulars: BLI (BLITz, streptavidin sensors, DNA immobilized): 50 mM Tris-HCl pH 7.4, 150 mM NaCl, 0.1% Tween 20; protein preincubated 30 min with 50 mM phosphodonor and ….
For data set [2], the system named is ApsR-P (phosphorylated with acetyl-phosphate) (Lacticaseibacillus paracasei BL23). Put plainly: BLI. As to conditions: BLI (BLITz, streptavidin sensors, DNA immobilized): 50 mM Tris-HCl pH 7.4, 150 mM NaCl, 0.1% Tween 20; protein preincubated 30 min with 50 mM phosphodonor and ….

A word on the Kd: it is the concentration at which binding is half-saturated. Take “GTAAGCTACCTTACCAGCTTGTAAGCAACTACGAATCACTGTAAGTAGGCATGGGGCATCATCCCCGCTAAGCTAATAAATGAAAGGGGACGATCACATG (double strand) [PpsdA]”: the Kd is 116 nM in data set [1] and 108000 nM in data set [2].
As to “TCACGCTTCTCATATTACGAAACTGTTAGCTCATTGTTACGCAATTCGTTGGCGTCATTTTTTCTGAAAACCTATAATGAATGTGTAAATAAAAACGTGG (double strand) [Pdlt]”, the Kd in data set [1] came out at 100 nM; in data set [2] it was 7470 nM.
“GGTAAAGAAAGACTAAAGCAGCTTACAAAGCCGTAAGTTACAAACAACCATCCGTTAGGCCATTATCAGGAAAAAGGCAGCCTAACCCGCTATCATAAAG (double strand) [PderA]”: the equilibrium dissociation constant (Kd) in data set [1] was 172 nM; in data set [2] it was 4740 nM.
The matching figures for “CAATCATCTCGCAAACTTACATCACCTTACAAAAAGGTCAGAAAGGGTGCGAGGGGCTTGTAGATTTCCTATAATGAATAGGAATATAGACACGGAGGAC (double strand) [PmprF]”: 94.8 nM and 26600 nM.

Source of the values: PMC10858260.
